One assay addresses T1, Arl2^Q70L-Venus (Drosophila melanogaster, UniProt Q06849 1-184, Q70L).
T1 sequence (looked up): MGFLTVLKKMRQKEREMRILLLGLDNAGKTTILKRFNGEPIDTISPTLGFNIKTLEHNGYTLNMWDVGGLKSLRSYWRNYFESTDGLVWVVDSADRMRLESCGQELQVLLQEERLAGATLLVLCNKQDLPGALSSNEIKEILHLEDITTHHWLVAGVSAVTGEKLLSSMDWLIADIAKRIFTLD
Description: co-IP.

For the next assay, the target named is T2, Arl2^T30N-Venus (Drosophila melanogaster, UniProt Q06849 1-184, T30N).
T2 sequence (looked up): T1 sequence (looked up) with T30N, L70Q
Put plainly: co-IP.

Changes are numbered by the printed parent chain.

B1: HA-TBCC (natural protein, Drosophila melanogaster, UniProt Q7KU40 1-355, looked up)
chain: MEGDAENRKDQILERLNKRNKDRQNYLDVKSELRSKETVQNEGVDYFYQTFSQKTMDIEQRLKDVQCGDGQPTDLARNFADITVEIQDLQRYLTASTMFLPDFKIKSCQNILNTLTAVSDETRQRLLPKKKFGFSGKKTVTKPKVPPNKDIVDAKLSKVPEKLGSNFTWTIANRTNEHIVLDSAKVNGQDITISKLNHCLVELQGHPGSVQVSRASKCTLLCGPIARSFFAENLEDCTLSIACQQLRLHSSRSIRIYMHVTCRAIIEDCKSIEIGEYNYDYSKLEADYLASGLNKAQNNYTDVADFNWLSPDVPSPNWSLLKDYPDPNWNALRRDFIANNHNSELKQDVKDISII
With B1, the “fold amount co-precipitated, against Arl2^T30N-Venus” value in the assay with Arl2^Q70L-Venus was around 9.6 fold.

B2: HA-TBCE (natural protein, Drosophila melanogaster, UniProt A1Z6J5 1-523, looked up)
chain: MVGIIDEVQLFYPLGTRIKIGDNYGTVRYVGEVSGHMGSWLGIEWDDGLRGKHNGIVDGKRYFQTQTPTGGSFIRPGKVGPCATLEDAARERYLNYDSSNVDESLIREAQASLQASLFEVVGMDKIARKQSKFEQLEEVSVDQTPVNAAGYLKELTHLTTLNVSHTLIWNWEIVASIAQQLPSLTNLNLSSNRLVLPTSSQITELEPSFRQLKRINLRSCGFSDWKDVMHTALLWPNILSLGLQENSLGQLAEVDRTKIFKQLHELDLHRTNIMDFDQVTKLGNLTTLRLLNIMENGIEEIKLPDCDSQEKLNIFVSLEQLNLLHNPIWNEADAFNELDKLPQLKRLSKTPHLKSNFDEMFSKAVASIASLQFINKAEVTAEQRRGAEYDIWKKYALDWMQATQGGTDSLREFCRRHRTYPLLVKKYGSPADFVPRSQAKQSNLINVSIRHQLTGETWEKKVPRMITVQTLQGLVMKRFRLSGDVPQLCYVDALHPDLVVPLDNNAKTLDFYSVQEHDTVLVQ
As for B2, the “fold amount co-precipitated, against Arl2^Q70L-Venus” value with Arl2^T30N-Venus is around 3.1 fold.

(Values after PMC4792071 (The Journal of Cell Biology, 2016).)
